Test system: Escherichia coli TOP10
Experiment: shrunken log2 fold change of peptide-encoding DNA abundance (4.5 h post-induction vs induction); higher = less antimicrobial activity (less host growth inhibition)
Details: time post-induction: 4.5 h; library: site-saturation at positions 5, 18, 19, 20
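Note: peptides expressed intracellularly from a pBAD plasmid library in pooled LB shake-flask culture, induced with 0.3% L-arabinose, DNA abundance read by NGS, three biological replicates, DESeq2 with apeglm shrinkage.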

| Sequence | shrunken log2 fold change |
| --- | --- |
| RRIRTRPPRLPRPRPRPVTHPRP | -0.0683 |
| RRIRWRPPRLPRPRPRPGDMPRP | 0.344 |
| RRIRTRPPRLPRPRPRPLWPPRP | 0.216 |
| RRIRFRPPRLPRPRPRPSATPRP | 0.0473 |
| RRIRARPPRLPRPRPRPQCWPRP | 0.173 |
| RRIRTRPPRLPRPRPRPTDQPRP | -0.143 |
| RRIRARPPRLPRPRPRPINGPRP | -0.00875 |
| RRIRCRPPRLPRPRPRPDSSPRP | -0.026 |
| RRIRPRPPRLPRPRPRPKECPRP | 0.241 |
| RRIRLRPPRLPRPRPRPNQCPRP | -0.206 |
| RRIRMRPPRLPRPRPRPPVRPRP | 0.458 |
| RRIRYRPPRLPRPRPRPQHFPRP | -0.0787 |
| RRIRKRPPRLPRPRPRPLQKPRP | -0.0368 |
| RRIRWRPPRLPRPRPRPKENPRP | 0.373 |
| RRIRARPPRLPRPRPRPGFEPRP | 0.735 |
| RRIRKRPPRLPRPRPRPLWMPRP | -0.0285 |
| RRIRIRPPRLPRPRPRPEIFPRP | -0.0951 |
| RRIRARPPRLPRPRPRPEFYPRP | 0.329 |
| RRIRPRPPRLPRPRPRPHIAPRP | -0.392 |
| RRIRCRPPRLPRPRPRPIAGPRP | 0.195 |
| RRIRSRPPRLPRPRPRPTRYPRP | -0.198 |
| RRIRCRPPRLPRPRPRPPHDPRP | 1.83 |

| Sequence | shrunken log2 fold change |
| --- | --- |
| RRIRRRPPRLPRPRPRPKCWPRP | 0.307 |
| RRIRHRPPRLPRPRPRPVVGPRP | 0.0224 |
| RRIRMRPPRLPRPRPRPAATPRP | 0.573 |
| RRIRKRPPRLPRPRPRPTETPRP | 0.114 |
| RRIRCRPPRLPRPRPRPYGEPRP | -0.432 |
| RRIRYRPPRLPRPRPRPLDWPRP | 0.171 |
| RRIRIRPPRLPRPRPRPWPEPRP | -0.162 |
| RRIRVRPPRLPRPRPRPFRPPRP | -0.324 |
| RRIRMRPPRLPRPRPRPCRIPRP | -0.0476 |
| RRIRLRPPRLPRPRPRPEESPRP | 0.012 |
| RRIRSRPPRLPRPRPRPDNTPRP | -0.44 |
| RRIRKRPPRLPRPRPRPGCSPRP | 0.289 |
| RRIRYRPPRLPRPRPRPRHQPRP | -0.111 |
| RRIRDRPPRLPRPRPRPMSKPRP | 0.101 |
| RRIRRRPPRLPRPRPRPEYHPRP | 0.311 |
| RRIRERPPRLPRPRPRPMIVPRP | -0.477 |
| RRIRKRPPRLPRPRPRPRNIPRP | -0.116 |
| RRIRARPPRLPRPRPRPRSNPRP | 0.0752 |
| RRIRQRPPRLPRPRPRPWKDPRP | -0.0211 |
| RRIRNRPPRLPRPRPRPKLYPRP | -0.289 |
| RRIRKRPPRLPRPRPRPAKCPRP | 0.174 |
| RRIRNRPPRLPRPRPRPCHPPRP | -0.0698 |

| Sequence | shrunken log2 fold change |
| --- | --- |
| RRIRIRPPRLPRPRPRPQQHPRP | -0.551 |
| RRIRERPPRLPRPRPRPDVMPRP | 0.0164 |
| RRIRCRPPRLPRPRPRPEHAPRP | 0.999 |
| RRIRCRPPRLPRPRPRPGFDPRP | 0.104 |
| RRIRSRPPRLPRPRPRPLNWPRP | -0.0815 |
| RRIRYRPPRLPRPRPRPIGQPRP | 0.013 |
| RRIRWRPPRLPRPRPRPIALPRP | 0.0387 |
| RRIRHRPPRLPRPRPRPDNWPRP | -0.335 |
| RRIRTRPPRLPRPRPRPSMTPRP | -0.401 |
| RRIRQRPPRLPRPRPRPPRKPRP | 0.835 |
| RRIRFRPPRLPRPRPRPWTIPRP | -0.238 |
| RRIRNRPPRLPRPRPRPLMAPRP | 0.176 |
| RRIRPRPPRLPRPRPRPWARPRP | 0.0379 |
| RRIRQRPPRLPRPRPRPNHWPRP | -0.176 |
| RRIRWRPPRLPRPRPRPQYFPRP | -0.181 |
| RRIRDRPPRLPRPRPRPEGRPRP | 0.517 |
| RRIRHRPPRLPRPRPRPLHSPRP | -0.151 |
| RRIRCRPPRLPRPRPRPKWPPRP | -0.0352 |
| RRIRERPPRLPRPRPRPLWTPRP | 0.0667 |
| RRIRPRPPRLPRPRPRPPPIPRP | 0.374 |
| RRIRPRPPRLPRPRPRPSDEPRP | -0.244 |
| RRIRIRPPRLPRPRPRPKFTPRP | -0.8 |

| Sequence | shrunken log2 fold change |
| --- | --- |
| RRIRPRPPRLPRPRPRPRNWPRP | 0.195 |
| RRIRHRPPRLPRPRPRPFCLPRP | -0.262 |
| RRIRDRPPRLPRPRPRPQYRPRP | -0.0135 |
| RRIRYRPPRLPRPRPRPRKKPRP | -0.0257 |
| RRIRARPPRLPRPRPRPLDGPRP | 0.425 |
| RRIRPRPPRLPRPRPRPIQFPRP | -0.145 |
| RRIRLRPPRLPRPRPRPSWEPRP | 0.0244 |
| RRIRERPPRLPRPRPRPHWAPRP | 0.225 |
| RRIRHRPPRLPRPRPRPVYDPRP | -0.202 |
| RRIRNRPPRLPRPRPRPIAQPRP | -0.00164 |
| RRIRCRPPRLPRPRPRPMIHPRP | -0.466 |
| RRIRHRPPRLPRPRPRPETNPRP | 0.0688 |
| RRIRARPPRLPRPRPRPPIIPRP | -0.308 |
| RRIRIRPPRLPRPRPRPNRWPRP | -0.0394 |
| RRIRNRPPRLPRPRPRPQDRPRP | 0.0155 |
| RRIRERPPRLPRPRPRPWLRPRP | 0.0269 |
| RRIRSRPPRLPRPRPRPKEEPRP | 0.0302 |
| RRIRLRPPRLPRPRPRPAYDPRP | -0.00456 |
| RRIRLRPPRLPRPRPRPHETPRP | -0.236 |
| RRIRFRPPRLPRPRPRPNPMPRP | -0.136 |
| RRIRIRPPRLPRPRPRPCPNPRP | -0.159 |
| RRIRPRPPRLPRPRPRPRKVPRP | 0.00959 |

| Sequence | shrunken log2 fold change |
| --- | --- |
| RRIRQRPPRLPRPRPRPNHGPRP | -0.00507 |
| RRIRERPPRLPRPRPRPLYWPRP | -0.383 |
| RRIRLRPPRLPRPRPRPCDNPRP | -0.161 |
| RRIRIRPPRLPRPRPRPRNLPRP | -0.306 |
| RRIRIRPPRLPRPRPRPDIFPRP | -0.828 |
| RRIRVRPPRLPRPRPRPHHKPRP | -0.477 |
| RRIRSRPPRLPRPRPRPMKNPRP | -0.145 |
| RRIRYRPPRLPRPRPRPNYTPRP | -0.562 |
| RRIRYRPPRLPRPRPRPSNKPRP | -0.953 |
| RRIRLRPPRLPRPRPRPHKEPRP | 0.0165 |
| RRIRGRPPRLPRPRPRPHVGPRP | 0.0375 |
| RRIRHRPPRLPRPRPRPDYDPRP | -0.278 |
| RRIRSRPPRLPRPRPRPMPGPRP | -0.102 |
| RRIRSRPPRLPRPRPRPSHNPRP | -0.784 |
| RRIRTRPPRLPRPRPRPESDPRP | -0.0712 |
| RRIRQRPPRLPRPRPRPKDMPRP | 0.0374 |
| RRIRVRPPRLPRPRPRPWHIPRP | -0.127 |
| RRIRTRPPRLPRPRPRPRCFPRP | 0.204 |
| RRIRKRPPRLPRPRPRPLFLPRP | 0.115 |
| RRIRVRPPRLPRPRPRPMHIPRP | -0.231 |
| RRIRVRPPRLPRPRPRPDVDPRP | -0.367 |
